Columns and labels:
[1] = target: T1, PLE2 Int (large serine recombinase) (Vibrio cholerae PLE2 (satellite), UniProt M1T311 1-630); test: EMSA
T1 sequence: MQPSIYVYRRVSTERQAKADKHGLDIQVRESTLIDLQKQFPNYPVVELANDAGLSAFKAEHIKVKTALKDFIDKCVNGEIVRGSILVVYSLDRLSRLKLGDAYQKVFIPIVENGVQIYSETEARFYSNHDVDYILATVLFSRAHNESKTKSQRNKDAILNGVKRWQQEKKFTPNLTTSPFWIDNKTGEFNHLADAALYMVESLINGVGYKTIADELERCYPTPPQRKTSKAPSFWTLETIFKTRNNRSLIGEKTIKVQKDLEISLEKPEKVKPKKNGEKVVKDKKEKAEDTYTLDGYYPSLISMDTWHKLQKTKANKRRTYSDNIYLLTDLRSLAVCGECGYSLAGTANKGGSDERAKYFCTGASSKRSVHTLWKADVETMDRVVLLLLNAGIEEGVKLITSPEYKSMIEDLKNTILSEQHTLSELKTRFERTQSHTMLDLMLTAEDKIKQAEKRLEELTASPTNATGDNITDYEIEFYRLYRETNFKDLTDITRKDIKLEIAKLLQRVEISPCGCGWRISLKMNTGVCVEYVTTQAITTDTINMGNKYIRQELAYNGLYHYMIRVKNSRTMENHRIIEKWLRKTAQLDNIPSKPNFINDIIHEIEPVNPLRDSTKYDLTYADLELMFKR

PLE2 IntS12A = target: T2, PLE2 IntS12A (Vibrio cholerae PLE2 (satellite), UniProt M1T311 1-630, S12A); test: EMSA
T2 sequence: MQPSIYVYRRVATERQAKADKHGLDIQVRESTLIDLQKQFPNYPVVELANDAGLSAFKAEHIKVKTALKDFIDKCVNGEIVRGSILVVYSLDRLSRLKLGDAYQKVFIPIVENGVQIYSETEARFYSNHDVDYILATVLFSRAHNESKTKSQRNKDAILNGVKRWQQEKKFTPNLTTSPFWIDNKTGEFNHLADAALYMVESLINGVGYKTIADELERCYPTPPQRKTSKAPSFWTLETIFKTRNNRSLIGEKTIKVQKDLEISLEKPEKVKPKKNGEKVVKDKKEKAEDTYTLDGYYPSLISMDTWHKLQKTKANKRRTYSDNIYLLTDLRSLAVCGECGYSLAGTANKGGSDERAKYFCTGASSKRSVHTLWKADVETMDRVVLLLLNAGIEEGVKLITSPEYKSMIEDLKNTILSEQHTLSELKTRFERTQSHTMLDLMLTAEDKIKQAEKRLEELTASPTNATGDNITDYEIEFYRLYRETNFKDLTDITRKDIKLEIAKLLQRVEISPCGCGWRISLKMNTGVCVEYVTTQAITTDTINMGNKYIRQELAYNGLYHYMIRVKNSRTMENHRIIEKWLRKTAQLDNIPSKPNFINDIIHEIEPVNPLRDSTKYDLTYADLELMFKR

B1: PLE2 attP EMSA probe (MN262/MN263) (dsDNA)
DNA 1: GATAGGTCATTTTATACTTCTGACAAAGTTACATATGACTTGCATTAGTG
DNA 2: CACTAATGCAAGTCATATGTAACTTTGTCAGAAGTATAAAATGACCTATC
[1]
  binding result: binds
PLE2 IntS12A
  binding result: binds
